Data from IntAct's records for PubMed 31515488.

B1: GRIP and coiled-coil domain-containing protein 1 (Homo sapiens), Q96CN9 (parent)
chain: MEKFGMNFGGGPSKKDLLETIETQKKQLLQYQARLKDVVRAYKSLLKEKEALEASIKVLSVSHEADVGLAGVQLPGLTFPDSVDDRCSTHSEDSTGTATSLDTAASLTSTKGEFGVEDDRPARGPPPPKSEEASWSESGVSSSSGDGPFAGGEVDKRLHQLKTQLATLTSSLATVTQEKSRMEASYLADKKKMKQDLEDASNKAEEERARLEGELKGLQEQIAETKARLITQQHDRAQEQSDHALMLRELQKLLQEERTQRQDLELRLEETREALAGRAYAAEQMEGFELQTKQLTREVEELKSELQAIRDEKNQPDPRLQELQEEAARLKSHFQAQLQQEMRKTALAEDQLRQQSQVEEQRVAALENQISEVSELLGTYEKAKQKDQLAIQKLKERILQLDLENKTLALAASSRSPLDSHGEESSLDVNVLKDKMEKLKRLLQVAARKSQVTLDVEKLCDLEIMPSSEAADGEKATALYYQQELKQLKEEFERYKMRAQVVLKSKNTKDGNLGKELEAAQEQLAELKEKYISLRLSCEELEHQHQQEADDWKQELARLQQLHRQELERCQLDFRDRTLKLEEELHKQRDRALAVLTEKDLELEQLRSVALASGLPGRRSPVGGGGPGDPADTSSSDSLTQALQLAAANEPTFFLYAEQLARKEVEITSLRKQKHRLEVEVHQLQDRLLEEGERHREEVAALQSHIEKNIRDQSREGANLEYLKNIIYRFLTLPDSLGRQQTLTAILTILHFSPEEKQVIMRLPTSASWWPSGKR
B2: E3 ubiquitin-protein ligase MYLIP (Homo sapiens), Q8WY64 (parent)
chain: MLCYVTRPDAVLMEVEVEAKANGEDCLNQVCRRLGIIEVDYFGLQFTGSKGESLWLNLRNRISQQMDGLAPYRLKLRVKFFVEPHLILQEQTRHIFFLHIKEALLAGHLLCSPEQAVELSALLAQTKFGDYNQNTAKYNYEELCAKELSSATLNSIVAKHKELEGTSQASAEYQVLQIVSAMENYGIEWHSVRDSEGQKLLIGVGPEGISICKDDFSPINRIAYPVVQMATQSGKNVYLTVTKESGNSIVLLFKMISTRAASGLYRAITETHAFYRCDTVTSAVMMQYSRDLKGHLASLFLNENINLGKKYVFDIKRTSKEVYDHARRALYNAGVVDLVSRNNQSPSHSPLKSSESSMNCSSCEGLSCQQTRVLQEKLRKLKEAMLCMVCCEEEINSTFCPCGHTVCCESCAAQLQSCPVCRSRVEHVQHVYLPTHTSLLNLTVI
partner: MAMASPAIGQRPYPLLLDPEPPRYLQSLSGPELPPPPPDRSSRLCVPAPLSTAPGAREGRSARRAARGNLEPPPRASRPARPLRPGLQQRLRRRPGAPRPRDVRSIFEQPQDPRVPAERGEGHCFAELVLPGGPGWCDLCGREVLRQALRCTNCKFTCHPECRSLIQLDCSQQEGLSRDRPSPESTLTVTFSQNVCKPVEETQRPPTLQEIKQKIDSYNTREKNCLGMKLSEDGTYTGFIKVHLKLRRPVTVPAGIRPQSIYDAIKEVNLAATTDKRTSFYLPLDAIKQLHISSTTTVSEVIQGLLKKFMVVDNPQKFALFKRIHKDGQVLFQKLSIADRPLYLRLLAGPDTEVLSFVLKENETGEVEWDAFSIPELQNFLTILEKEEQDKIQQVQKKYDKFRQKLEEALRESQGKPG
B3: Myeloid leukemia factor 1 (Homo sapiens), P58340 (parent)
chain: MFRMLNSSFEDDPFFSESILAHRENMRQMIRSFSEPFGRDLLSISDGRGRAHNRRGHNDGEDSLTHTDVSSFQTMDQMVSNMRNYMQKLERNFGQLSVDPNGHSFCSSSVMTYSKIGDEPPKVFQASTQTRRAPGGIKETRKAMRDSDSGLEKMAIGHHIHDRAHVIKKSKNKKTGDEEVNQEFINMNESDAHAFDEEWQSEVLKYKPGRHNLGNTRMRSVGHENPGSRELKRREKPQQSPAIEHGRRSNVLGDKLHIKGSSVKSNKK
partner: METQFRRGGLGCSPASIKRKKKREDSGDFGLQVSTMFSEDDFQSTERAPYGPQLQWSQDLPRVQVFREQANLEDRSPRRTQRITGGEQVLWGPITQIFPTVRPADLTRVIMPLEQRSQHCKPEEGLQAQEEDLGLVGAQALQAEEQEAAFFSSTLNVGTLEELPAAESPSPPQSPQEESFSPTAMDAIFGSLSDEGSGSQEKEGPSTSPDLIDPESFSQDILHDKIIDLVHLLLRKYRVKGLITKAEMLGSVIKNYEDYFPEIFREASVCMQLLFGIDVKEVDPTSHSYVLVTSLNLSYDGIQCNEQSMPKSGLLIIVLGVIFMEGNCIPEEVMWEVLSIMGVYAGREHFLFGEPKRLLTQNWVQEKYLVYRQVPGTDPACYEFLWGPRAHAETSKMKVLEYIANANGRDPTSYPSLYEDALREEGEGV
B4: NAD kinase (Homo sapiens), O95544 (parent)
chain: MEMEQEKMTMNKELSPDAAAYCCSACHGDETWSYNHPIRGRAKSRSLSASPALGSTKEFRRTRSLHGPCPVTTFGPKACVLQNPQTIMHIQDPASQRLTWNKSPKSVLVIKKMRDASLLQPFKELCTHLMEENMIVYVEKKVLEDPAIASDESFGAVKKKFCTFREDYDDISNQIDFIICLGGDGTLLYASSLFQGSVPPVMAFHLGSLGFLTPFSFENFQSQVTQVIEGNAAVVLRSRLKVRVVKELRGKKTAVHNGLGENGSQAAGLDMDVGKQAMQYQVLNEVVIDRGPSSYLSNVDVYLDGHLITTVQGDGVIVSTPTGSTAYAAAAGASMIHPNVPAIMITPICPHSLSFRPIVVPAGVELKIMLSPEARNTAWVSFDGRKRQEIRHGDSISITTSCYPLPSICVRDPVSDWFESLAQCLHWNVRKKQAHFEEEEEEEEEG
B5: Hypoxanthine-guanine phosphoribosyltransferase (Homo sapiens), P00492 (parent)
chain: MATRSPGVVISDDEPGYDLDLFCIPNHYAEDLERVFIPHGLIMDRTERLARDVMKEMGGHHIVALCVLKGGYKFFADLLDYIKALNRNSDRSIPMTVDFIRLKSYCNDQSTGDIKVIGGDDLSTLTGKNVLIVEDIIDTGKTMQTLLSLVRQYNPKMVKVASLLVKRTPRSVGYKPDFVGFEIPDKFVVGYALDYNEYFRDLNHVCVISETGKAKYKA
B6: Cysteine-rich C-terminal protein 1 (Homo sapiens), Q9UGL9 (parent)
chain: MSSQQSAVSAKGFSKGSSQGPAPCPAPAPTPAPASSSSCCGSGRGCCGDSGCCGSSSTSCCCFPRRRRRQRSSGCCCCGGGSQRSQRSNNRSSGCCSGC
partner: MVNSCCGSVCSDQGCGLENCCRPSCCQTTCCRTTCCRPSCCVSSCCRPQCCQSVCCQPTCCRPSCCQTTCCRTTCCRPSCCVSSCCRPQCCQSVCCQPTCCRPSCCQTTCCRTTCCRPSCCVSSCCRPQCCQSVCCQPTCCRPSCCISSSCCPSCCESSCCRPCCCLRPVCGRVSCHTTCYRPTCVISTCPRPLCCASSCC
B7: Zinc finger protein 512B (Homo sapiens), Q96KM6 (parent)
chain: MTDPFCVGGRRLPGSSKSGPGKDGSRKEVRLPMLHDPPKMGMPVVRGGQTVPGQAPLCFDPGSPASDKTEGKKKGRPKAENQALRDIPLSLMNDWKDEFKAHSRVKCPNSGCWLEFPSIYGLKYHYQRCQGGAISDRLAFPCPFCEAAFTSKTQLEKHRIWNHMDRPLPASKPGPISRPVTISRPVGVSKPIGVSKPVTIGKPVGVSKPIGISKPVSVGRPMPVTKAIPVTRPVPVTKPVTVSRPMPVTKAMPVTKPITVTKSVPVTKPVPVTKPITVTKLVTVTKPVPVTKPVTVSRPIVVSKPVTVSRPIAISRHTPPCKMVLLTRSENKAPRATGRNSGKKRAADSLDTCPIPPKQARPENGEYGPSSMGQSSAFQLSADTSSGSLSPGSRPSGGMEALKAAGPASPPEEDPERTKHRRKQKTPKKFTGEQPSISGTFGLKGLVKAEDKARVHRSKKQEGPGPEDARKKVPAAPITVSKEAPAPVAHPAPGGPEEQWQRAIHERGEAVCPTCNVVTRKTLVGLKKHMEVCQKLQDALKCQHCRKQFKSKAGLNYHTMAEHSAKPSDAEASEGGEQEERERLRKVLKQMGRLRCPQEGCGAAFSSLMGYQYHQRRCGKPPCEVDSPSFPCTHCGKTYRSKAGHDYHVRSEHTAPPPEEPTDKSPEAEDPLGVERTPSGRVRRTSAQVAVFHLQEIAEDELARDWTKRRMKDDLVPETARLNYTRPGLPTLNPQLLEAWKNEVKEKGHVNCPNDCCEAIYSSVSGLKAHLASCSKGAHLAGKYRCLLCPKEFSSESGVKYHILKTHAENWFRTSADPPPKHRSQDSLVPKKEKKKNLAGGKKRGRKPKERTPEEPVAKLPPRRDDWPPGCRDKGARGSTGRKVGVSKAPEK
B8: STAM-binding protein (Homo sapiens), O95630 (parent)
chain: MSDHGDVSLPPEDRVRALSQLGSAVEVNEDIPPRRYFRSGVEIIRMASIYSEEGNIEHAFILYNKYITLFIEKLPKHRDYKSAVIPEKKDTVKKLKEIAFPKAEELKAELLKRYTKEYTEYNEEKKKEAEELARNMAIQQELEKEKQRVAQQKQQQLEQEQFHAFEEMIRNQELEKERLKIVQEFGKVDPGLGGPLVPDLEKPSLDVFPTLTVSSIQPSDCHTTVRPAKPPVVDRSLKPGALSNSESIPTIDGLRHVVVPGRLCPQFLQLASANTARGVETCGILCGKLMRNEFTITHVLIPKQSAGSDYCNTENEEELFLIQDQQGLITLGWIHTHPTQTAFLSSVDLHTHCSYQMMLPESVAIVCSPKFQETGFFKLTDHGLEEISSCRQKGFHPHSKDPPLFCSCSHVTVVDRAVTITDLR
partner: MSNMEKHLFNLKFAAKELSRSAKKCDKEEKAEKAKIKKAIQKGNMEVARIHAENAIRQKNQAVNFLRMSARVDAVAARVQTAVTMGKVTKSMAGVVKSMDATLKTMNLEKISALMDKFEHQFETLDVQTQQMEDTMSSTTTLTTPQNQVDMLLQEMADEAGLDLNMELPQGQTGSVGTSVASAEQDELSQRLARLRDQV
B9: Centrosomal protein POC5 (Homo sapiens), Q8NA72 (parent)
chain: MSSDEEKYSLPVVQNDSSRGSSVSSNLQEEYEELLHYAIVTPNIEPCASQSSHPKGELVPDVRISTIHDILHSQGNNSEVRETAIEVGKGCDFHISSHSKTDESSPVLSPRKPSHPVMDFFSSHLLADSSSPATNSSHTDAHEILVSDFLVSDENLQKMENVLDLWSSGLKTNIISELSKWRLNFIDWHRMEMRKEKEKHAAHLKQLCNQINELKELQKTFEISIGRKDEVISSLSHAIGKQKEKIELMRTFFHWRIGHVRARQDVYEGKLADQYYQRTLLKKVWKVWRSVVQKQWKDVVERACQARAEEVCIQISNDYEAKVAMLSGALENAKAEIQRMQHEKEHFEDSMKKAFMRGVCALNLEAMTIFQNRNDAGIDSTNNKKEEYGPGVQGKEHSAHLDPSAPPMPLPVTSPLLPSPPAAVGGASATAVPSAASMTSTRAASASSVHVPVSALGAGSAATAASEEMYVPRVVTSAQQKAGRTITARITGRCDFASKNRISSSLAIMGVSPPMSSVVVEKHHPVTVQTIPQATAAKYPRTIHPESSTSASRSLGTRSAHTQSLTSVHSIKVVD

Variants of: B1
Settings: with mcrs1_human MCRS1, Q96EZ8
mcrs1_human MCRS1, Q96EZ8, sequence (Q96EZ8 whole entry): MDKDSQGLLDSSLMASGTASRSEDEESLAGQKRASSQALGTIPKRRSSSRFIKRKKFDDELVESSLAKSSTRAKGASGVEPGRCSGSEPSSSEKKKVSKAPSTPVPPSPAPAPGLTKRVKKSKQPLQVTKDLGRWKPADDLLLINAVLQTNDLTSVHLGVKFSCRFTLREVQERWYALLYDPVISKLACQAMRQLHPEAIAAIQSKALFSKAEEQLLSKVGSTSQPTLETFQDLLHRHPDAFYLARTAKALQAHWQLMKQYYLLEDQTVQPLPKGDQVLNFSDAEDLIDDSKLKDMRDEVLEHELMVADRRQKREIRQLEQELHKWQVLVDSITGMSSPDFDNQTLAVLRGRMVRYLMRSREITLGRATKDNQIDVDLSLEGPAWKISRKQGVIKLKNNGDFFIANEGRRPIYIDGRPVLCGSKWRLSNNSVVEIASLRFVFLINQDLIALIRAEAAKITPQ

effect of a mutation on the interaction	Variant
with no effect	A274T

Variants of: B1
Settings: with amol2_human AMOTL2, Q9Y2J4
amol2_human AMOTL2, Q9Y2J4, sequence (Q9Y2J4 whole entry): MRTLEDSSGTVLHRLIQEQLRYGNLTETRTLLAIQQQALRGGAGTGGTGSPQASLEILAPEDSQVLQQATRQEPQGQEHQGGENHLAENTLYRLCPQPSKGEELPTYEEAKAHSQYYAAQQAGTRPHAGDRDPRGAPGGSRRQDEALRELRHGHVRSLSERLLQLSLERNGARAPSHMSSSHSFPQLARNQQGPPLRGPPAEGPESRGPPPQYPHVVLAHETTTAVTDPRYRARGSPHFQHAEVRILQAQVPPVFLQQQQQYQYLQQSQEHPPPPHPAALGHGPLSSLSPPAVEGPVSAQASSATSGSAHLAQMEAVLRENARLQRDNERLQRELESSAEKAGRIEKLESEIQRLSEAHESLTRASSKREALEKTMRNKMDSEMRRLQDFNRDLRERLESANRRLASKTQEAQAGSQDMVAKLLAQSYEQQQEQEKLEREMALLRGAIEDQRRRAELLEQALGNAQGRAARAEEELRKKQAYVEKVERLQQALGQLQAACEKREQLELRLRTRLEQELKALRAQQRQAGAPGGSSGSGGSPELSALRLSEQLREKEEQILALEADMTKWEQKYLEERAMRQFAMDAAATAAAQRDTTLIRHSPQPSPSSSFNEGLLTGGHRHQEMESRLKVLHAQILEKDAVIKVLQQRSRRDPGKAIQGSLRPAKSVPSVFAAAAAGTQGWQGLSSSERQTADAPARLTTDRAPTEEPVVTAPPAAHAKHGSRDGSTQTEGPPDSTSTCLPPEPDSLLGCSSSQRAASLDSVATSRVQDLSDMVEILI

effect of a mutation on the interaction	Variant
with no effect	A274T

Variants of: B2
Settings: with rasf5_human RASSF5, Q8WWW0

effect of a mutation on the interaction	Variant
with no effect	N342S

Variants of: B3
Settings: with magab_human MAGEA11, P43364

effect of a mutation on the interaction	Variant
with no effect	P226T

Variants of: B4
Settings: with sdcb1_human SDCBP
Target sequence in this assay (O00560 whole entry): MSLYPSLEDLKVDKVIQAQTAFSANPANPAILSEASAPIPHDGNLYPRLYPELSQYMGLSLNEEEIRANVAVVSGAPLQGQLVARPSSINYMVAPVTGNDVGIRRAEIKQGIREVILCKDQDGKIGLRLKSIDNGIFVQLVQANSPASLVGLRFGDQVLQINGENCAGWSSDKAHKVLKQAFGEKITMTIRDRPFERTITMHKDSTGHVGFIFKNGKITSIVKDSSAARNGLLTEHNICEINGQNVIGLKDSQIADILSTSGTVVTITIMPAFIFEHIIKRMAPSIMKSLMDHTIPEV

effect of a mutation on the interaction	Variant
with no effect	R249W

Variants of: B5
Settings: with sdcb1_human SDCBP
Target sequence in this assay (O00560 whole entry): as above

effect of a mutation on the interaction	Variant
disrupting interaction strength	C206Y
disrupting interaction strength	P38S

Variants of: B5
Settings: with iscu_human ISCU

effect of a mutation on the interaction	Variant
disrupting interaction strength	C206Y
disrupting interaction strength	P38S

Variants of: B5
Settings: with prdc1_human PRTFDC1, Q9NRG1
prdc1_human PRTFDC1, Q9NRG1, sequence (Q9NRG1 whole entry): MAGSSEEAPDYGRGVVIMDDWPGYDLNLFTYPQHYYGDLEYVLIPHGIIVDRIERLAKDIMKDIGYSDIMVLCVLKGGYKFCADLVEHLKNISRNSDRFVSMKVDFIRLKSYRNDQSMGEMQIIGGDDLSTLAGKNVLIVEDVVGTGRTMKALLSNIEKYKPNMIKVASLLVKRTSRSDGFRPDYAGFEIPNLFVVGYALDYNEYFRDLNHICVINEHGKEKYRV

effect of a mutation on the interaction	Variant
with no effect	C206Y
with no effect	P38S

Variants of: B5
Settings: with ntaq1_human NTAQ1, Q96HA8

effect of a mutation on the interaction	Variant
disrupting interaction strength	C206Y
disrupting interaction strength	P38S

Variants of: B6
Settings: with kr412_human KRTAP4-12, Q9BQ66

effect of a mutation on the interaction	Variant
with no effect	G20S

Variants of: B7
Settings: with fhl3_human FHL3, Q13643
fhl3_human FHL3, Q13643, sequence (Q13643 whole entry): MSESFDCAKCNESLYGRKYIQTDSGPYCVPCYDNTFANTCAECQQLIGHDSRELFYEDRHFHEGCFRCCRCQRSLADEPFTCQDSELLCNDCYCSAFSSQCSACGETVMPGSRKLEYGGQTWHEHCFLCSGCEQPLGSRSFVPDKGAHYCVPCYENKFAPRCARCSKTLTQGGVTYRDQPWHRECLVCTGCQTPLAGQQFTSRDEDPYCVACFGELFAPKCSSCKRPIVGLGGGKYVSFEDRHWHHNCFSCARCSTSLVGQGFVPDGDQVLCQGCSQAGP

effect of a mutation on the interaction	Variant
with no effect	A408T
with no effect	A453T

Variants of: B7
Settings: with traf1_human TRAF1, Q13077
traf1_human TRAF1, Q13077, sequence (Q13077 whole entry): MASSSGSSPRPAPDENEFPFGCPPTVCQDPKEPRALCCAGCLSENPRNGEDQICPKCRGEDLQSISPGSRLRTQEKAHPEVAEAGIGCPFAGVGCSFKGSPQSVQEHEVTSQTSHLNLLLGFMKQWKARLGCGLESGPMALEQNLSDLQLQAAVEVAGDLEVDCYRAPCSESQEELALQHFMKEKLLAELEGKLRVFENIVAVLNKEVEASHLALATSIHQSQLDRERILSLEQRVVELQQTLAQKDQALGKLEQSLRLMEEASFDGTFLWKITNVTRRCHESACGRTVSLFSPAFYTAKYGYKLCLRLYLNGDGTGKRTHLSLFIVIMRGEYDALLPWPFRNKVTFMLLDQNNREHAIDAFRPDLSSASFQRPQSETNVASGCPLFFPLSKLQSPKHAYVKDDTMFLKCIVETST

effect of a mutation on the interaction	Variant
with no effect	A408T
with no effect	A453T

Variants of: B8
Settings: with chm1b_human CHMP1B

effect of a mutation on the interaction	Variant
with no effect	R255H
with no effect	Q155H

Variants of: B9
Settings: with cetn1_human CETN1, Q12798
cetn1_human CETN1, Q12798, sequence (Q12798 whole entry): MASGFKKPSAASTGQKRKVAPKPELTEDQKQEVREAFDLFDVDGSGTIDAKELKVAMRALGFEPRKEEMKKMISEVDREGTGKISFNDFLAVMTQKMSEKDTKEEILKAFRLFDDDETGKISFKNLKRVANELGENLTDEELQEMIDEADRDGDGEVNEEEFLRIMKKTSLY

effect of a mutation on the interaction	Variant
with no effect	A446T
with no effect	I175M
with no effect	I85T
with no effect	R302K
